Measurements taken from US20190010233A1 (JIANGSU HYAMAB PHARMACEUTICAL, published 2019).

T1: hPD-L2 (human, UniProt Q9BQ51 20-219, limits assumed)
T1 construct: Bought protein
T1 sequence (looked up): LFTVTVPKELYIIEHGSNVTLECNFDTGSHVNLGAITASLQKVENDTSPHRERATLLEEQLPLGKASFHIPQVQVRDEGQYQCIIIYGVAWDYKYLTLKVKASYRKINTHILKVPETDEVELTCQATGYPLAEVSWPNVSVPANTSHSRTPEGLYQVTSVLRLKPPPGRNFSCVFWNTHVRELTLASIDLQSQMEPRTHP


Assays:
[1] = target: T2, human PD-L1^ECD-hFc protein (human, UniProt Q9NZQ7 19-239, biotinylated in the PD-1 binding ELISA (Table 3) and in the Octet assay (Table 12)); assay: ELISA, 1.111 nM mAb
T2 construct: The plain and the biotinylated protein are kept as one molecule; also called PD-L1-hFc; Immunogen A; not shown: human IgG Fc fragment (hFc)
Protocol: (§1) 100 μL of the diluted recombinant proteins were added to each well of 96-well plate. The plates were sealed with plastic film and incubated at 4° C. overnight. The plates were washed twice with wash buffer (PBS+0.01% (v/v) Tween20), and incubated with blocking buffer (PBS+0.01% (v/v) Tween20+1% (w/w) BSA) at room temperature for 2 hours. The blocking buffer was aspirated away, and 100 μL of purified anti-PD-L1 antibodies were added to each well and incubated for 2 hours at 37° C. The plates were washed three times with wash buffer (PBS+0.01% (v/v) Tween20). HRP-conjugated secondary antibody (Sigma) was added to each well and incubated for 2 hours at 37° C. After the plates were washed three times with wash buffer, 100 μL TMB substrate were added to each well, and the plates were incubated for 30 minutes at room temperature. 100 μL stop solution (0.1N HCl) was added to each well to stop the reaction.

[2] = target: T3, cyno PD-L1^ECD-hFc protein (cyno, UniProt G7PSE7 19-239); assay: ELISA, 1.111 nM mAb
T3 construct: also called Cyno Monkey PD-L1^ECD-hFc
Protocol: as §1

[3] = target: T4, full length human PD-L1 on cells (human, UniProt Q9NZQ7 19-290); assay: FACS CHO-K1-hPD-L1, 0.14 nM mAb
T4 construct: Also used as the target of the cell-based functional assays (transfected stimulator cells; PD-L1 of the cells in the mixed lymphocyte reaction); also called CHO-K1-hPD-L1; CHOK1-hPD-L1
Protocol: (§2) Other CHO-K1 were stably transfected with a pIRES plasmid containing the nucleic acid sequence encoding full length cyno PD-L1 to generate CHO-K1 cells stably expressing cyno PD-L1 (herein referred to as CHO-K1-cPD-L1 cells). […] The culture media was aspirated, and the cells were washed twice with HBSS (Hanks Balanced Salt Solution, Invitrogen). The cells were treated with enzyme-free cell dissociation solution (Versene solution, Invitrogen) and collected. The cells were then washed twice with HBSS, cell counts were determined, and cells were resuspended with HBSS at 2×10⁶ cells/mL. Goat serum was added to the cell suspension to a final concentration of 1%, and the cells were blocked for 30 minutes on ice and then washed twice with HBSS. The cells were collected after centrifugation and resuspended in FACS buffer (HBSS+1% BSA, v/v) at 2×10⁶ cells/mL. 100 μL of the cell suspension were then added to each well of 96-well plate. 100 μL of purified anti-PD-L1 antibodies from Example 2 were added to each well of the 96-well plate and incubated for 2 hours on ice. […] The samples were washed three times with FACS buffer, and 100 μL fixation buffer (4% paraformaldehyde v/v) were added to each well and incubated for 10 minutes. The cells were then washed twice with FACS buffer and resuspended in 100 μL FACS buffer. The mean fluorescence intensity (MFI) was determined using FACS Calibur (BD), and the results are shown in FIGS. 7-8 and in Tables 10-11.

[4] = target: T4, full length human PD-L1 on cells; assay: FACS CHO-K1-hPD-L1, 1.23 nM mAb
[5] = target: T5, full length cyno PD-L1 on cells (cyno, UniProt G7PSE7 19-290); assay: FACS CHO-K1-cPD-L1, 0.41 nM mAb
T5 construct: also called CHO-K1-cPD-L1
Protocol: as §2

[6] = target: T4, full length human PD-L1 on cells; assay: FACS CHO-K1-hPD-L1, 33.33 nM mAb
[7] = target: T2, human PD-L1^ECD-hFc protein; assay: ELISA, mAb concentration not given
Protocol: as §1

hPD-L2 = target: T1, hPD-L2; assay: ELISA, mAb concentration not given
Protocol: as §1

[8] = target: T2, human PD-L1^ECD-hFc protein; assay: ELISA, 1 nM mAb
Protocol: as §1

[9] = target: T4, full length human PD-L1 on cells; assay: cell-based or functional assay
[10] = target: T4, full length human PD-L1 on cells; assay: cell-based or functional assay; remark: listed apart in the source
[11] = target: T5, full length cyno PD-L1 on cells; assay: FACS CHO-K1-cPD-L1, 1 nM mAb
Protocol: as §2

[12] = target: T5, full length cyno PD-L1 on cells; assay: FACS CHO-K1-cPD-L1, 0.1 nM mAb
Protocol: as §2

[13] = target: T5, full length cyno PD-L1 on cells; assay: FACS CHO-K1-cPD-L1, 0.01 nM mAb
Protocol: as §2

[14] = target: T4, full length human PD-L1 on cells; assay: FACS CHO-K1-hPD-L1, 0.001 nM mAb
Protocol: as §2

[15] = target: T5, full length cyno PD-L1 on cells; assay: FACS CHO-K1-cPD-L1, 0.001 nM mAb
Protocol: as §2

[16] = target: T5, full length cyno PD-L1 on cells; assay: FACS CHO-K1-cPD-L1, 0.001 nM mAb as printed (second such column)
Protocol: as §2

T5 sequence (G7PSE7 entry or part of it limits assumed): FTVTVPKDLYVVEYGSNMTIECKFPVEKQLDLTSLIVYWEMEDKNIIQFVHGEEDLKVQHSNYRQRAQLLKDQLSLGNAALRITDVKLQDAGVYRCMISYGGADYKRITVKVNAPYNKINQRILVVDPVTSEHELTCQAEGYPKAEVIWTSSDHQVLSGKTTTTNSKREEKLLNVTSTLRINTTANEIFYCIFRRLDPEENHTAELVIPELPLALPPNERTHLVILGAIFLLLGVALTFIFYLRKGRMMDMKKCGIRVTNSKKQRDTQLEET
T2 sequence (Q9NZQ7 19-239): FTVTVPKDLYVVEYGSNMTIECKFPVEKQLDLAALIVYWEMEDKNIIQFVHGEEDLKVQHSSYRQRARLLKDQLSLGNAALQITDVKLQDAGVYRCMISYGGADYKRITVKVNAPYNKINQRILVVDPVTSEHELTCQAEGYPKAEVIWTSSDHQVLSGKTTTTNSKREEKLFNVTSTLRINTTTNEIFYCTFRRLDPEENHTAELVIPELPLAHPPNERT
T4 sequence (Q9NZQ7 19-290 limits assumed): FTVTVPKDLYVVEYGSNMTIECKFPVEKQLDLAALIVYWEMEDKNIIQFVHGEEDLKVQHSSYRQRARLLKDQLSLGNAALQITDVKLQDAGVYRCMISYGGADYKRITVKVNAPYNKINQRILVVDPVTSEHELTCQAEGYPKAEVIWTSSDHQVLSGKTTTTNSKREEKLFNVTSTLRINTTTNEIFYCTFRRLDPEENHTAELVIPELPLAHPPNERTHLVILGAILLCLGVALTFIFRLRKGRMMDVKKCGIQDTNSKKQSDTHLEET
T3 sequence (G7PSE7 entry or part of it limits assumed): as the sequence (Q9NZQ7 19-239) above, with A33T, A34S, S62N, R68Q, Q82R, F173L, T185A, T192I, H215L counted along it

| OD450 nm [1] | OD450 nm [2] | Mean fluorescence intensity [3] | Mean fluorescence intensity [4] | Mean fluorescence intensity [5] | Mean fluorescence intensity [6] | OD450 nm [7] | OD450 nm (hPD-L2) | OD450 nm [8] | IL-2 (pg/mL), MLR donor 2, 0.001 µg/mL mAb [9] | IL-2 (pg/mL), MLR donor 2, 0.01 µg/mL mAb [9] | IL-2 (pg/mL), MLR donor 2, 0.1 µg/mL mAb [9] | IL-2 (pg/mL), MLR donor 2, 1 µg/mL mAb [9] | IFN-γ (pg/mL), MLR, 0.001 µg/mL mAb [10] | IFN-γ (pg/mL), MLR, 0.01 µg/mL mAb [10] | IFN-γ (pg/mL), MLR, 0.1 µg/mL mAb [10] | IFN-γ (pg/mL), MLR, 1 µg/mL mAb [10] | Mean fluorescence intensity [11] | Mean fluorescence intensity [12] | Mean fluorescence intensity [13] | other results | Binder |
| --- | --- | --- | --- | --- | --- | --- | --- | --- | --- | --- | --- | --- | --- | --- | --- | --- | --- | --- | --- | --- | --- |
| 1.81 | 1.81 | 44.3 | 106 | 83.2 | 116 | 2.75 | 0.156 | – | – | – | – | – | – | – | – | – | – | – | – | – | chimeric anti-PD-L1 antibody 73D3G2 (antibody, V domains shown, Purified from hybridoma of Harbour H2L2 mice: human variable regions, rat constant regions) VH: EVQLVESGGGLVQPGGSLRLSCAASGFTFNTYWMNWVRQAPGRGLEWVANIKQDGGEKYYVDSVKGRFTISRDNAKNSLYLQMNSLRAEDTAMYYCARDGRSWYPDAFDIWGQGTVVTVSS VL: DIQMTQSPSTLSASVGDRVTITCRASQSISTWLAWYQQKLGKAPKLLIYEVSILESGVPSRFSGSGSGTEFTLTISSLQPDDFATYYCQQYHSFSSFGGGTRVEIK |
| – | – | – | – | – | – | – | – | 2.77 | 73.4 pg/mL | 130 pg/mL | 120 pg/mL | 94.4 pg/mL | 4730 pg/mL | 8100 pg/mL | 9060 pg/mL | 12400 pg/mL | 77.2 | 17 | 3.38 | Mean fluorescence intensity [14]: 2.66; Mean fluorescence intensity [15]: 1.93; Mean fluorescence intensity [16]: 1.75 | chimeric anti-PD-L1 antibody 192D9E7 (antibody, V domains shown, Purified from hybridoma of Harbour H2L2 mice: human variable regions, rat constant regions) VH: EVQLVESGGGLVQPGGSLRLSCAASGFTFSSYWMSWVRQAPGKGLEWVADIKQDGSEKYYVDSVKGRFTISRDNAKNSLYLQMNSLRAEDTAVYYCTRDKPHWGGVMDAWGQGTSVTVSS VL: not shown |
| 1.86 | 1.92 | 51.5 | 174 | 74.5 | 225 | 2.71 | 0.205 | – | – | – | – | – | – | – | – | – | – | – | – | – | chimeric anti-PD-L1 antibody 78A11F6 (antibody, V domains shown, Purified from hybridoma of Harbour H2L2 mice: human variable regions, rat constant regions) VH: EVQLVESGGGLVQPGGSLRLSCAASGITFSSYWMSWVRQTPGKGLEWVANIKQDGSEKYYVKSVKGRFTISRDNAKNSLYLQMNSLRAEDTAVYYCVRDRAVPGTGAFDIWGQGTMVIVSS VL: DIQMTQSPSTLSASVGDRVTITCRASQSISNWLAWYQQKPGKAPKLLIYKASSLESGVPSRFSGSGSGTEFTLTISSLQPDDFATYYCQQYDSSLFTFGQGTKLEIK |
| – | – | – | – | – | – | – | – | 2.7 | 54.2 pg/mL | 90.1 pg/mL | 110 pg/mL | 140 pg/mL | 3340 pg/mL | 3390 pg/mL | 7480 pg/mL | 16400 pg/mL | 94.9 | 19.8 | 3.83 | Mean fluorescence intensity [14]: 1.88; Mean fluorescence intensity [15]: 2.02; Mean fluorescence intensity [16]: 1.78 | chimeric anti-PD-L1 antibody 73G11B3 (antibody, V domains shown, Purified from hybridoma of Harbour H2L2 mice: human variable regions, rat constant regions) VH: EVQLVESGGGLVQPGGSLRLSCVVSGFTFSSYWMSWVRQTPGKGLEWVANIKQDGSEKYYVDSVKGRLTISRDNAKNSLYLQMNSLRAEDTAVYYCVRDRAVPGTGALDIWGQGTMVTVSS VL: not shown |
| 1.32 | 1.32 | 73.2 | 206 | 83.8 | 194 | 2.64 | 0.214 | – | – | – | – | – | – | – | – | – | – | – | – | – | chimeric anti-PD-L1 antibody 105C5D7 (antibody, V domains shown, Purified from hybridoma of Harbour H2L2 mice: human variable regions, rat constant regions) VH: EVQLVESGGGLVQPGGSLRLSCAASGFTFSSYWMSWVRQAPGKGLEWVANIKQDGNEKYYVDSVKGRFTISRDNAKNSLYLQMNSLRAEDTAVYYCARNIKWGDAFDIWGQGTMVTVSS VL: DIQMTQSPSSLSASVGDRVTITCRASQSISSYLNWYQQKPGKAPKLLIYAASSLQSGVPSRFSGSGSGTDFTLTISSLQPEDFAIYSCQQSYSIPLTFGGGTKVEIK |
| – | – | – | – | – | – | – | – | 2.8 | 68.2 pg/mL | 100 pg/mL | 71.5 pg/mL | 101 pg/mL | 6040 pg/mL | 6280 pg/mL | 8760 pg/mL | 12600 pg/mL | 80.5 | 14.3 | 3.08 | Mean fluorescence intensity [14]: 2.1; Mean fluorescence intensity [15]: 1.91; Mean fluorescence intensity [16]: 1.78 | chimeric anti-PD-L1 antibody 127D2F3 (antibody, V domains shown, Purified from hybridoma of Harbour H2L2 mice: human variable regions, rat constant regions) VH: EVQLVESGGGLVQPGGSLRLSCVASGFTFSSYWMSWVRQAPGKGLEWVANIKQDGSEKYYVDSVKGRLTISRDNAKNSLYLQMKSLRAEDTAVYYCARDPIYSSYFDYWGQGILVTVSS VL: DIQMTQSPSSLSASVGDRVTITCRASQSISNYLNWYQQKPGKAPKLLIYAASSLQSGVPSRFSGSGSGTDFTLTISSLQPEDFAAYYCQQSYGIPFTFGPGTKVDIK |
